Results reported in the supplement of paper PMC10065799, “High-throughput profiling of sequence recognition by tyrosine kinases and SH2 domains using bacterial peptide display” (eLife, 2023).

Target: Hck (UniProt P08631)
Assay: phosphorylation enrichment, bacterial display (enrichment ratio); higher = better substrate or ligand; peptides without Tyr show the background
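Note: 11-residue human phosphosite peptides and single-mutation variants displayed on the E. coli surface, counted by deep sequencing, each peptide's frequency after selection divided by its frequency in the unselected input library; frequency after pTyr selection over input frequency; kinase dosed for 20-30% of maximal phosphorylation in three min.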

Chain of Hck (P08631 whole entry, looked up): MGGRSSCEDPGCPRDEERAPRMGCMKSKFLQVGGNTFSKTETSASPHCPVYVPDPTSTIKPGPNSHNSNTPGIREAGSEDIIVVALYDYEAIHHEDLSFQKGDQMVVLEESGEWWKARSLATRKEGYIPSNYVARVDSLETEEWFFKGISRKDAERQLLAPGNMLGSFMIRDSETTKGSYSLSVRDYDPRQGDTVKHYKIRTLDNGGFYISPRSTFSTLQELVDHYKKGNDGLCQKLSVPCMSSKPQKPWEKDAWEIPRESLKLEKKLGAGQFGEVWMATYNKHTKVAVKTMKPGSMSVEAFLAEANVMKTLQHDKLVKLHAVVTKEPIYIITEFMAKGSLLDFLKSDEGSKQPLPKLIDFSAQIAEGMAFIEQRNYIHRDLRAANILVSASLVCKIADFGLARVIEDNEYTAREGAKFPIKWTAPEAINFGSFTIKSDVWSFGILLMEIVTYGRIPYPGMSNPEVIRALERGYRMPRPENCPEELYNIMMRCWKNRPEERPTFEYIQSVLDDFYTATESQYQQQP

Sequence | phosphorylation enrichment
SFGMVYEGNAR [INSR_Y1038] | 0.784
NKPTVYGVSPN [ABL1_Y226] | 0.603
GQAPGYSYTAA [CYCS_Y47] | 0.502
LERFIYNPEEF [HLA-DPB1_Y59_R61P_YF] | 1.33
LSTPEYGPKLK [TBC1D14_Y46_A43T] | 0.417
SCRENYSDSEE [LEMD3_Y258] | 0.502
HRGFLYLAIEY [TEK_Y899_Y897F] | 0.743
ERIELYELDKK [PMM2_Y145_F144L] | 0.574
FPKVRYHWLVL [APTX_Y214_A212V_YF] | 0.425
CTTIQYNYMCN [TP53_Y234_H233Q] | 0.551
YETDYYRKGGK [INSR_Y1190] | 0.469
AHLLQYNHQVK [LGALS3_Y221_R224Q] | 0.508
VGNAAYQAGSL [STK36_Y1181_P1185S] | 0.37
PSPMPYASCQM [FOXL2_Y215] | 0.661
GLDGRYLLRDS [SH2D1A_Y29_S28R] | 0.395
RHAASYSSDSE [REPS1_Y116] | 0.41
GMTLSYLFWEP [NDUFS8_Y74_R77W] | 0.629
HRGSLYLAIEY [TEK_Y899_Y897S] | 0.798
SGFESYGSSSF [RPA2_Y9_YF] | 0.481
RVDRDYVLKST [HTATIP2_Y111_A116T] | 0.578
IKNSGYISRYL [EIF2AK3_Y585] | 0.33
TDISLYPSGGT [TENM4_Y399_V396I] | 0.398
QNWELYSEGLG [CNKSR1_Y665_R662W] | 4.32
AIYWRYSKFFD [SH3PXD2B_Y45_R43W] | 0.886
PSRKDYETFQS [CTNND2_Y1154_P1159S_YF] | 0.54
MENFIYESMQF [CYP19A1_Y361_R365Q_YF] | 7.84
VLAHKYHGGGG [HBB_Y146_A141V] | 0.405
YFWDGYMPRQY [GSS_Y270_R267W] | 0.783
IDPFIYTPFGS [CYP3A4_Y432_YF] | 5.82

Target: Jak2 (UniProt O60674)
Sequence (O60674 whole entry, looked up): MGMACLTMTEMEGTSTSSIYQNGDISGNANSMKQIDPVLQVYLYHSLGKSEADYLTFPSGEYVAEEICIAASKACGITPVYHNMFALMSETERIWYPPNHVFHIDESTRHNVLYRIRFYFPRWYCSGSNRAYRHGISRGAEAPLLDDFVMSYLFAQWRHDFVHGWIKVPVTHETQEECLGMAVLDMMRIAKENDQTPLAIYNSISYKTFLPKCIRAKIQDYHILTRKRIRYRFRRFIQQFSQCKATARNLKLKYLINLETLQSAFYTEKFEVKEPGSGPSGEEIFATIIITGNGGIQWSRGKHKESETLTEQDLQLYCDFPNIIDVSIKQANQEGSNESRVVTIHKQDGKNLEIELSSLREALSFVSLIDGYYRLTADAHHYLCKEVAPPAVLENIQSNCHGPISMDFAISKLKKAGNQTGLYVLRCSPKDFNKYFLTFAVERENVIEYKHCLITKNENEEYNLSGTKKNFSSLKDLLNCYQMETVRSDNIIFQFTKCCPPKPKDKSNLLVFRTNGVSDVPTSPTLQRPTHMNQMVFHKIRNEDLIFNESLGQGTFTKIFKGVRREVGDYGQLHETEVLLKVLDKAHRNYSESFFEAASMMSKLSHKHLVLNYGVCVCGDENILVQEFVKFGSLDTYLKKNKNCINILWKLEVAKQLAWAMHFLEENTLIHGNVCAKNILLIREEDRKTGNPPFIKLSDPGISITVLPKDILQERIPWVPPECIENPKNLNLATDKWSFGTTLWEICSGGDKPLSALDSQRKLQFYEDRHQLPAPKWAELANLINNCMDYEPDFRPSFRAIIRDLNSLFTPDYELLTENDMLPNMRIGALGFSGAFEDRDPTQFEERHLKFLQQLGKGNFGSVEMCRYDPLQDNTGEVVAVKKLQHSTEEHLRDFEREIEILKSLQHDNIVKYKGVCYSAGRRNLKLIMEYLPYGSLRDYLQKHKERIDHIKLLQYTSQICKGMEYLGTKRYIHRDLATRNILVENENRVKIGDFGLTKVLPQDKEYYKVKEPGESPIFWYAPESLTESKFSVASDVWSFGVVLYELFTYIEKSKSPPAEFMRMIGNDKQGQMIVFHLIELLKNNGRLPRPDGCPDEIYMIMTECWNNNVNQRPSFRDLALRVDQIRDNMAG
Assay: as above

Sequence | phosphorylation enrichment
SFGMVYEGNAR [INSR_Y1038] | 0.672
NKPTVYGVSPN [ABL1_Y226] | 0.478
GQAPGYSYTAA [CYCS_Y47] | 0.615
LERFIYNPEEF [HLA-DPB1_Y59_R61P_YF] | 1.32
LSTPEYGPKLK [TBC1D14_Y46_A43T] | 0.569
SCRENYSDSEE [LEMD3_Y258] | 1
HRGFLYLAIEY [TEK_Y899_Y897F] | 1.49
ERIELYELDKK [PMM2_Y145_F144L] | 0.887
FPKVRYHWLVL [APTX_Y214_A212V_YF] | 1.18
CTTIQYNYMCN [TP53_Y234_H233Q] | 0.751
YETDYYRKGGK [INSR_Y1190] | 0.83
AHLLQYNHQVK [LGALS3_Y221_R224Q] | 0.517
VGNAAYQAGSL [STK36_Y1181_P1185S] | 0.466
PSPMPYASCQM [FOXL2_Y215] | 0.98
GLDGRYLLRDS [SH2D1A_Y29_S28R] | 0.51
RHAASYSSDSE [REPS1_Y116] | 1.19
GMTLSYLFWEP [NDUFS8_Y74_R77W] | 5.21
HRGSLYLAIEY [TEK_Y899_Y897S] | 2.2
SGFESYGSSSF [RPA2_Y9_YF] | 0.436
RVDRDYVLKST [HTATIP2_Y111_A116T] | 0.436
IKNSGYISRYL [EIF2AK3_Y585] | 0.538
TDISLYPSGGT [TENM4_Y399_V396I] | 0.657
QNWELYSEGLG [CNKSR1_Y665_R662W] | 1.13
AIYWRYSKFFD [SH3PXD2B_Y45_R43W] | 1.07
PSRKDYETFQS [CTNND2_Y1154_P1159S_YF] | 0.553
MENFIYESMQF [CYP19A1_Y361_R365Q_YF] | 1.04
VLAHKYHGGGG [HBB_Y146_A141V] | 0.434
YFWDGYMPRQY [GSS_Y270_R267W] | 5.42
IDPFIYTPFGS [CYP3A4_Y432_YF] | 0.73

Target: MERTK (UniProt Q12866)
Sequence (Q12866 whole entry, looked up): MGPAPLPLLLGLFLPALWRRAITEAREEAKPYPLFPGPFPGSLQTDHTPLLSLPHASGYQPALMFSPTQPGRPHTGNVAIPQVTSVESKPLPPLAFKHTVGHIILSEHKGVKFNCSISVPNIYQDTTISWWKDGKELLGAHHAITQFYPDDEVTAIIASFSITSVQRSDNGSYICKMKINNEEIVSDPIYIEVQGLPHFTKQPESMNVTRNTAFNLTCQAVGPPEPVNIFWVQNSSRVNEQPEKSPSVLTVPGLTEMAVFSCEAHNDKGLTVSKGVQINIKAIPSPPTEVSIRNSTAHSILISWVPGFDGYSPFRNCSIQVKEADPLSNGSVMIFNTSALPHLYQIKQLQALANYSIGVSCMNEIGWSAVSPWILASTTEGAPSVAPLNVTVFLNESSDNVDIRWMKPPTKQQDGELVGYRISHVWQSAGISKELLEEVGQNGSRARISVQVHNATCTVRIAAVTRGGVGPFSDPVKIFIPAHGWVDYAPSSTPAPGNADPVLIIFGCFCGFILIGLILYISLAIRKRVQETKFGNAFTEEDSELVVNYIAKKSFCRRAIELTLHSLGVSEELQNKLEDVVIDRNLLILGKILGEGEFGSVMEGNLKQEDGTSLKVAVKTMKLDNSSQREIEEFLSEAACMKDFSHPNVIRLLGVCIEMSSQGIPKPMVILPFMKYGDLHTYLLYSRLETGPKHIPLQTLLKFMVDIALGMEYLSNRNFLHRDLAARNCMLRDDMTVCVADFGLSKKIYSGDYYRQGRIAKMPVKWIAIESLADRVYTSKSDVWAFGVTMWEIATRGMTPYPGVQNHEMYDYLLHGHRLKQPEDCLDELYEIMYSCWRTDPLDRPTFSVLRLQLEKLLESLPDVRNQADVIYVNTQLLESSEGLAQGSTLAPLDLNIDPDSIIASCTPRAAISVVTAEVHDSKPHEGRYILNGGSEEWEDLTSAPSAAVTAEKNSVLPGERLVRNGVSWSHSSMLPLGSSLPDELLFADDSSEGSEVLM
Assay: as above

Sequence | phosphorylation enrichment
SFGMVYEGNAR [INSR_Y1038] | 0.323
NKPTVYGVSPN [ABL1_Y226] | 0.395
GQAPGYSYTAA [CYCS_Y47] | 0.438
LERFIYNPEEF [HLA-DPB1_Y59_R61P_YF] | 0.618
LSTPEYGPKLK [TBC1D14_Y46_A43T] | 0.532
SCRENYSDSEE [LEMD3_Y258] | 0.539
HRGFLYLAIEY [TEK_Y899_Y897F] | 0.703
ERIELYELDKK [PMM2_Y145_F144L] | 0.568
FPKVRYHWLVL [APTX_Y214_A212V_YF] | 0.461
CTTIQYNYMCN [TP53_Y234_H233Q] | 0.482
YETDYYRKGGK [INSR_Y1190] | 0.427
AHLLQYNHQVK [LGALS3_Y221_R224Q] | 0.521
VGNAAYQAGSL [STK36_Y1181_P1185S] | 0.312
PSPMPYASCQM [FOXL2_Y215] | 0.608
GLDGRYLLRDS [SH2D1A_Y29_S28R] | 0.41
RHAASYSSDSE [REPS1_Y116] | 0.51
GMTLSYLFWEP [NDUFS8_Y74_R77W] | 1.43
HRGSLYLAIEY [TEK_Y899_Y897S] | 0.834
SGFESYGSSSF [RPA2_Y9_YF] | 0.348
RVDRDYVLKST [HTATIP2_Y111_A116T] | 0.487
IKNSGYISRYL [EIF2AK3_Y585] | 0.404
TDISLYPSGGT [TENM4_Y399_V396I] | 0.394
QNWELYSEGLG [CNKSR1_Y665_R662W] | 2.26
AIYWRYSKFFD [SH3PXD2B_Y45_R43W] | 0.421
PSRKDYETFQS [CTNND2_Y1154_P1159S_YF] | 0.614
MENFIYESMQF [CYP19A1_Y361_R365Q_YF] | 6.46
VLAHKYHGGGG [HBB_Y146_A141V] | 0.352
YFWDGYMPRQY [GSS_Y270_R267W] | 3.96
IDPFIYTPFGS [CYP3A4_Y432_YF] | 2.86

Tested on: c-Abl (mouse)
Assay: as above

Sequence | phosphorylation enrichment
SFGMVYEGNAR [INSR_Y1038] | 0.616
NKPTVYGVSPN [ABL1_Y226] | 0.67
GQAPGYSYTAA [CYCS_Y47] | 0.56
LERFIYNPEEF [HLA-DPB1_Y59_R61P_YF] | 1.09
LSTPEYGPKLK [TBC1D14_Y46_A43T] | 0.57
SCRENYSDSEE [LEMD3_Y258] | 0.792
HRGFLYLAIEY [TEK_Y899_Y897F] | 1.47
ERIELYELDKK [PMM2_Y145_F144L] | 0.641
FPKVRYHWLVL [APTX_Y214_A212V_YF] | 0.978
CTTIQYNYMCN [TP53_Y234_H233Q] | 0.493
YETDYYRKGGK [INSR_Y1190] | 0.752
AHLLQYNHQVK [LGALS3_Y221_R224Q] | 0.474
VGNAAYQAGSL [STK36_Y1181_P1185S] | 0.448
PSPMPYASCQM [FOXL2_Y215] | 0.666
GLDGRYLLRDS [SH2D1A_Y29_S28R] | 0.441
RHAASYSSDSE [REPS1_Y116] | 0.627
GMTLSYLFWEP [NDUFS8_Y74_R77W] | 1.32
HRGSLYLAIEY [TEK_Y899_Y897S] | 2.14
SGFESYGSSSF [RPA2_Y9_YF] | 0.436
RVDRDYVLKST [HTATIP2_Y111_A116T] | 0.369
IKNSGYISRYL [EIF2AK3_Y585] | 0.558
TDISLYPSGGT [TENM4_Y399_V396I] | 0.528
QNWELYSEGLG [CNKSR1_Y665_R662W] | 0.751
AIYWRYSKFFD [SH3PXD2B_Y45_R43W] | 1.1
PSRKDYETFQS [CTNND2_Y1154_P1159S_YF] | 1.94
MENFIYESMQF [CYP19A1_Y361_R365Q_YF] | 4.06
VLAHKYHGGGG [HBB_Y146_A141V] | 0.405
YFWDGYMPRQY [GSS_Y270_R267W] | 0.565
IDPFIYTPFGS [CYP3A4_Y432_YF] | 0.773
